Measurements taken from patent US9549967B2, “Regulation of sodium channels by PLUNC proteins” (The University of North Carolina at Chapel Hill, priority 2009, dated 2017).

What was measured:
[1] = test system: human bronchial epithelial cultures; assay: Airway surface liquid height by confocal microscopy in human bronchial epithelial cultures; format: cell-based; conditions: SPLUNC1 knockdown cultures; 50 ng/ml rSPLUNC1 added to airway surface liquid
Source text: shRNA-induced knockdown of SPLUNC1: Our strategy was to select shRNA sequences from Dharmacon that targeted SPLUNC1 effectively by using transient siRNA in an immortalized human airway epithelial cell line (denoted AALEB) (Lundberg et al., Oncogene 21:4577 (2002)). […] Passage-1 airway cells surviving one week of selection were then trypsinized and plated down on 12 mm T-clear inserts and differentiated under air liquid interface conditions. At the time of the functional assays, we measured airway surface liquid SPLUNC1 protein levels by Western blot to verify stable knockdown. An anti-luciferase shRNA-expressing adenovirus was infected separately as a control.
Confocal microscopy: To label airway surface liquid, Ringer containing Texas Red-dextran (2 mg/ml; Invitrogen) was added to human bronchial epithelial culture mucosal surfaces. Perfluorocarbon was added mucosally to prevent evaporation of the airway surface liquid and the culture placed in a chamber containing 100 μl Ringer on the stage of a Leica SP5 confocal microscope with a 63× glycerol immersion objective. 5 points per culture were scanned and an average airway surface liquid height determined. For confocal microscopy human bronchial epithelial cultures were bathed serosally in a modified Ringer solution containing (mM): 116 NaCl, 10 NaHCO3, 5.1 KCl, 1.2 CaCl2, 1.2 MgCl2, 20 TES, 10 glucose, pH 7.4). […]

αENaC = target: T1, αENaC (Rattus norvegicus, UniProt P37089); assay: Surface biotinylation of αENaC in Xenopus oocytes; format: cell-based; conditions: coexpression with SPLUNC1 in oocytes
T1 construct: expressed in transfected cells; host or cells: Xenopus oocytes
T1 sequence (P37089 1-698): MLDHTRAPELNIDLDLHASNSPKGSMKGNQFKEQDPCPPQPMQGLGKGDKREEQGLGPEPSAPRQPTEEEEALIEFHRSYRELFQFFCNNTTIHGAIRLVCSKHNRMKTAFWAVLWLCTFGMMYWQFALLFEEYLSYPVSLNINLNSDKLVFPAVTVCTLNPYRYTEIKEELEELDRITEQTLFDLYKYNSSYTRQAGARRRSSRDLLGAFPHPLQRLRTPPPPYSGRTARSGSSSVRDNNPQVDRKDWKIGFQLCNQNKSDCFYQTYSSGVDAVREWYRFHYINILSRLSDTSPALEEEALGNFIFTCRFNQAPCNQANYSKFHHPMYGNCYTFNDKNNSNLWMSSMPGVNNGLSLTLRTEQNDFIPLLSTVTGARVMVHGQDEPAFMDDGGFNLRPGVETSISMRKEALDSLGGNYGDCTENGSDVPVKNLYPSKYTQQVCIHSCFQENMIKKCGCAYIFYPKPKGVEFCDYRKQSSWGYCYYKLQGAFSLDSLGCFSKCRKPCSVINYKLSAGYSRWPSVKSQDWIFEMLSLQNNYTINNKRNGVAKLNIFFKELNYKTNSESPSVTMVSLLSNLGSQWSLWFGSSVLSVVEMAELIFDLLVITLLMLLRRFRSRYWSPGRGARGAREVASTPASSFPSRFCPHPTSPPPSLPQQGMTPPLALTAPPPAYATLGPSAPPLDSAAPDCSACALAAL
T1 sequence (P37090 1-638 partner): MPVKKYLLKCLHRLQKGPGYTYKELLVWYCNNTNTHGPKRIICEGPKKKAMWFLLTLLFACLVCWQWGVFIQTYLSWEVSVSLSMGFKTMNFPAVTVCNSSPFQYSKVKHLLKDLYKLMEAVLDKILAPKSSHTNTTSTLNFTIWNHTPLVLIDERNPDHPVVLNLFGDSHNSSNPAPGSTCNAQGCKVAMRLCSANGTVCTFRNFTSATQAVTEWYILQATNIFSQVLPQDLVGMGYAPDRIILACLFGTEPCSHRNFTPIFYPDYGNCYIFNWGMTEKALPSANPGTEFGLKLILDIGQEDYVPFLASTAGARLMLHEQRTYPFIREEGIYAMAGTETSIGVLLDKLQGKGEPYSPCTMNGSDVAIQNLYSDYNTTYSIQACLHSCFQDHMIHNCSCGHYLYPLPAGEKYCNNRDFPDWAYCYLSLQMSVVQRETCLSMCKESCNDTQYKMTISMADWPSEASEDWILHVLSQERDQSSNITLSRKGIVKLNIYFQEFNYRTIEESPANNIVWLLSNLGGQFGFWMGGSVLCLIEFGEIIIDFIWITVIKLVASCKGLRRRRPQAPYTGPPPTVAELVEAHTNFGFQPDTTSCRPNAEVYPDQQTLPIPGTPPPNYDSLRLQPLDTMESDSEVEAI
T1 sequence (P37091 1-650 partner): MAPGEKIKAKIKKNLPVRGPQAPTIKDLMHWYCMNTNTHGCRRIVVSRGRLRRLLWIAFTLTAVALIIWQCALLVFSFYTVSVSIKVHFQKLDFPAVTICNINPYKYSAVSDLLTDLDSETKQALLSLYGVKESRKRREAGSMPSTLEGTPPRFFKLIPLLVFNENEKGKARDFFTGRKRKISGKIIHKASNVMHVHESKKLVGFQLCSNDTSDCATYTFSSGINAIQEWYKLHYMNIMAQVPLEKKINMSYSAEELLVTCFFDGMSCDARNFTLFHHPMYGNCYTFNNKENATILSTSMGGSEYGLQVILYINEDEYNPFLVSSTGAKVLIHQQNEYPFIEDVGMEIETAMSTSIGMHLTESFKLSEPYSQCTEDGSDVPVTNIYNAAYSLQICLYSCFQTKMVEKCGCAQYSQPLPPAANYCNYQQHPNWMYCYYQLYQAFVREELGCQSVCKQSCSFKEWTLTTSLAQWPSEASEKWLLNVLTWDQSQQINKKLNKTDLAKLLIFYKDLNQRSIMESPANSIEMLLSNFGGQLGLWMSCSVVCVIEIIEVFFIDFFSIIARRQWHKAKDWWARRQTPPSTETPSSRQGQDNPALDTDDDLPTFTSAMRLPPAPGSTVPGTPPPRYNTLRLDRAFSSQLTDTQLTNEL
Description: The effect of SPLUNC1 on the number of ENaC channels in the plasma membrane was tested by expressing SPLUNC1 and αENaC in Xenopus oocytes. After surface biotinylation of αENaC, total lysate was prepared and lysate from 3-4 eggs was separated on a 10% gel.

B1: SPLUNC1: human SPLUNC1, 256 amino acid secreted PLUNC protein (SEQ ID NO:1); rSPLUNC1 = V5/6His-tagged protein purified from HEK293 media (protein, listed as Homo sapiens)
chain: MFQTGGLIVFYGLLAQTMAQFGGLPVPLDQTLPLNVNPALPLSPTGLAGSLTNALSNGLLSGGLLGILENLPLLDILKPGGGTSGGLLGGLLGKVTSVIPGLNNIIDIKVTDPQLLELGLVQSPDGHRLYVTIPLGIKLQVNTPLVGASLLRLAVKLDITAEILAVRDKQERIHLVLGDCTHSPGSLQISLLDGLGPLPIQGLLDSLTGILNKVLPELVQGNVCPLVNEVLRGLDITLVHDIVNMLIHGLQFVIKV
modifications: V5/6His tag
notes: rSPLUNC1 = V5/6His-tagged protein purified from HEK293 media
regulation of airway surface liquid height [1]: restored | plasma membrane ENaC (surface biotinylation) (αENaC): decreased
